In series [1] the test system is HeLa Kyoto. Put plainly: solubility change mitosis vs G1/S (difference of NP-40 vs SDS log2 ratios) (log2 ratio difference); higher = more soluble in mitosis.
Series [2] relates to HeLa Kyoto. Put plainly: thermal stability score vs G1/S (z-score of summed log2 fold changes over temperatures); higher = more thermally stable than in G1/S.
Series [3] concerns HeLa Kyoto. Put plainly: solubility in G1/S (NP-40 vs SDS abundance) (log2 ratio); higher = more soluble. To be noted: cell cycle stage: G1/S.
Series [4] has as its system HeLa Kyoto. In words: melting temperature (median over replicates), in situ; higher = more thermally stable.
[5] abbreviates: cell cycle stage: early G1 (4.5 h after nocodazole release).

These results are taken from the supplement of paper PMC5998384.
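Wherever melting temperature (median over replicates), in situ is given: HeLa Kyoto cells synchronized by double thymidine or nocodazole block, proteins quantified by TMT10plex mass spectrometry, three independent biological replicates.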
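Wherever solubility change mitosis vs G1/S (difference of NP-40 vs SDS log2 ratios) is given: synchronized HeLa Kyoto cells (double thymidine block for G1/S, nocodazole release for mitosis), protein amounts in NP-40 versus SDS lysates quantified by mass spectrometry, three biological replicates.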
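Wherever solubility in G1/S (NP-40 vs SDS abundance) is given: HeLa Kyoto cells arrested at G1/S by double thymidine block, proteins quantified by TMT10plex mass spectrometry in mild NP-40 versus SDS extracts, three biological replicates.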
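Wherever thermal stability score vs G1/S (z-score of summed log2 fold changes over temperatures) is given: synchronized HeLa Kyoto cells, proteins quantified by TMT10plex mass spectrometry, three biological replicates, mitosis taken 0.5 h after nocodazole release, G1/S directly after double thymidine block.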

Regarding “MSLYDDLGVETSDSKTEGWSKNFKLLQSQLQVKKAALTQAKSQRTKQSTVLAPVIDLKRGGSSDDRQIVDTPPHVAAGLKDPVPSGFSAGEVLIPLADEYDPMFPNDYEKVVKRQREERQRQRELERQKEIEEREKRRKDRHEASGFARRPDPDSDEDEDYERERRKRSMGGAAIAPPTSLVEKDKELPRDFPYEEDSRPRSQSSKAAIPPPVYEEQDRPRSPTGPSNSFLANMGGTVAHKIMQKYGFREGQGLGKHEQGLSTALSVEKTSKRGGKIIVGDATEKDASKKSDSNPLTEILKCPTKVVLLRNMVGAGEVDEDLEVETKEECEKYGKVGKCVIFEIPGAPDDEAVRIFLEFERVESAIKAVVDLNGRYFGGRVVKACFYNLDKFRVLDLAEQV [RBM17]”, the “solubility change mitosis (log2)” value in series [1] was found to be 0.318. The thermal stability score in series [2] (setting [5]) amounted to 0.948; in series [2] (cell cycle stage: mitosis), 4.62. In addition, the “solubility in G1/S (log2)” value in series [3] is -0.32. Besides, the figures for the melting temperature in series [4] (cell cycle stage: G1/S) and in series [4] (cell cycle stage: mitosis) were 48.3 °C and 49.3 °C, respectively.

As for “MAEMGSKGVTAGKIASNVQKKLTRAQEKVLQKLGKADETKDEQFEQCVQNFNKQLTEGTRLQKDLRTYLASVKAMHEASKKLNECLQEVYEPDWPGRDEANKIAENNDLLWMDYHQKLVDQALLTMDTYLGQFPDIKSRIAKRGRKLVDYDSARHHYESLQTAKKKDEAKIAKPVSLLEKAAPQWCQGKLQAHLVAQTNLLRNQAEEELIKAQKVFEEMNVDLQEELPSLWNSRVGFYVNTFQSIAGLEENFHKEMSKLNQNLNDVLVGLEKQHGSNTFTVKAQPSDNAPAKGNKSPSPPDGSPAATPEIRVNHEPEPAGGATPGATLPKSPSQLRKGPPVPPPPKHTPSKEVKQEQILSLFEDTFVPEISVTTPSQFEAPGPFSEQASLLDLDFDPLPPVTSPVKAPTPSGQSIPWDLWEPTESPAGSLPSGEPSAAEGTFAVSWPSQTAEPGPAQPAEASEVAGGTQPAAGAQEPGETAASEAASSSLPAVVVETFPATVNGTVEGGSGAGRLDLPPGFMFKVQAQHDYTATDTDELQLKAGDVVLVIPFQNPEEQDEGWLMGVKESDWNQHKELEKCRGVFPENFTERVP [BIN1]”, the “solubility change mitosis (log2)” value in series [1] was -0.0586. Further, the thermal stability score in series [2] (setting [5]) is -1.69; in series [2] (cell cycle stage: mitosis) it was 0.531. For the same sequence, the “solubility in G1/S (log2)” value in series [3] was 0.803. Moreover, the melting temperature in series [4] (cell cycle stage: G1/S) is 51.9 °C; in series [4] (cell cycle stage: mitosis), 51.6 °C.

For “MEEEDESRGKTEESGEDRGDGPPDRDPTLSPSAFILRAIQQAVGSSLQGDLPNDKDGSRCHGLRWRRCRSPRSEPRSQESGGTDTATVLDMATDSFLAGLVSVLDPPDTWVPSRLDLRPGESEDMLELVAEVRIGDRDPIPLPVPSLLPRLRAWRTGKTVSPQSNSSRPTCARHLTLGTGDGGPAPPPAPSSASSSPSPSPSSSSPSPPPPPPPPAPPAPPAPRFDIYDPFHPTDEAYSPPPAPEQKYDPFEPTGSNPSSSAGTPSPEEEEEEEEEEEEEEEDEEEEEGLSQSISRISETLAGIYDDNSLSQDFPGDESPRPDAQPTQPTPAPGTPPQVDSTRADGAMRRRVFVVGTEAEACREGKVSVEVVTAGGAALPPPLLPPGDSEIEEGEIVQPEEEPRLALSLFRPGGRAARPTPAASATPTAQPLPQPPAPRAPEGDDFLSLHAESDGEGALQVDLGEPAPAPPAADSRWGGLDLRRKILTQRRERYRQRSPSPAPAPAPAAAAGPPTRKKSRRERKRSGEAKEAASSSSGTQPAPPAPASPWDSKKHRSRDRKPGSHASSSARRRSRSRSRSRSTRRRSRSTDRRRGGSRRSRSREKRRRRRRSASPPPATSSSSSSRRERHRGKHRDGGGSKKKKKRSRSRGEKRSGDGSEKAPAPAPPPSGSTSCGDRDSRRRGAVPPSIQDLTDHDLFAIKRTITVGRLDKSDPRGPSPAPASSPKREVLYDSEGLSGEERGGKSSQKDRRRSGAASSSSSSREKGSRRKALDGGDRDRDRDRDRDRDRSSKKARPPKESAPSSGPPPKPPVSSGSGSSSSSSSCSSRKVKLQSKVAVLIREGVSSTTPAKDAASAGLGSIGVKFSRDRESRSPFLKPDERAPTEMAKAAPGSTKPKKTKVKAKAGAKKTKGTKGKTKPSKTRKKVRSGGGSGGSGGQVSLKKSKADSCSQAAGTKGAEETSWSGEERAAKVPSTPPPKAAPPPPALTPDSQTVDSSCKTPEVSFLPEEATEEAGVRGGAEEEEEEEEEEEEEEEEEEQQPATTTATSTAAAAPSTAPSAGSTAGDSGAEDGPASRVSQLPTLPPPMPWNLPAGVDCTTSGVLALTALLFKMEEANLASRAKAQELIQATNQILSHRKPPSSLGMTPAPVPTSLGLPPGPSSYLLPGSLPLGGCGSTPPTPTGLAATSDKREGSSSSEGRGDTDKYLKKLHTQERAVEEVKLAIKPYYQKKDITKEEYKDILRKAVHKICHSKSGEINPVKVSNLVRAYVQRYRYFRKHGRKPGDPPGPPRPPKEPGPPDKGGPGLPLPPL [SCAF1]”, in series [1], the “solubility change mitosis (log2)” value worked out at 1.41. In addition, the thermal stability score in series [2] (setting [5]) was -0.0585; in series [2] (cell cycle stage: mitosis) it was 1.29. Further, in series [3], the “solubility in G1/S (log2)” value is -1.69. For the same sequence, the melting temperature in series [4] (cell cycle stage: G1/S) was 49.5 °C; in series [4] (cell cycle stage: mitosis) it was 50.2 °C.

For “MVGVKPVGSDPDFQPELSGAGSRLAVVKFTMRGCGPCLRIAPAFSSMSNKYPQAVFLEVDVHQCQGTAATNNISATPTFLFFRNKVRIDQYQGADAVGLEEKIKQHLENDPGSNEDTDIPKGYMDLMPFINKAGCECLNESDEHGFDNCLRKDTTFLESDCDEQLLITVAFNQPVKLYSMKFQGPDNGQGPKYVKIFINLPRSMDFEEAERSEPTQALELTEDDIKEDGIVPLRYVKFQNVNSVTIFVQSNQGEEETTRISYFTFIGTPVQATNMNDFKRVVGKKGESH [TXNL1]”, the “solubility change mitosis (log2)” value in series [1] was -0.112. In addition, the thermal stability score in series [2] (setting [5]) was -0.465; in series [2] (cell cycle stage: mitosis), -0.0973. Also, the “solubility in G1/S (log2)” value in series [3] was determined as 0.258. Moreover, the melting temperature was determined as 50.1 °C in series [4] (cell cycle stage: G1/S) and 50.2 °C in series [4] (cell cycle stage: mitosis).
